Assay results taken from patent publication US20210115135A1 (ZHEJIANG SHIMAI PHARMACEUTICAL, published 2021).
Positions count from the first letter of the chain named. Where “and” joins values, the source holds several entries; their conditions need not be identical. Equal values may be shown once.

T1: recombinant human LAG3 (Sino Biological Inc.) (human, UniProt P18627 23-450)
T1 construct: Bought recombinant protein; also called CD223; biotinylated recombinant human LAG3
T1 sequence (looked up): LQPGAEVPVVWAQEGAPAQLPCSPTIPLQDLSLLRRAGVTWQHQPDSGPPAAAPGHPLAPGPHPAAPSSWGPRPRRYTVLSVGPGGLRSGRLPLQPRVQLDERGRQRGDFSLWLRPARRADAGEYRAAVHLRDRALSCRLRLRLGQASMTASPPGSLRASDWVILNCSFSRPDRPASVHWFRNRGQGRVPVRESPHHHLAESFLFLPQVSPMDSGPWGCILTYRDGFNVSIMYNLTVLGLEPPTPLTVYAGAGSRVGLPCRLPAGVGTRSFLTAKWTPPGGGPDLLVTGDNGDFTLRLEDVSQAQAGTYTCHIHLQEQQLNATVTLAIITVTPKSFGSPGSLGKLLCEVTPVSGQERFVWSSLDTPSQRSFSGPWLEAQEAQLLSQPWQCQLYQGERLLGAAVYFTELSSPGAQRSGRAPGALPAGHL

B1: DNV3 Fab (Fab, V domains shown)
VH: EVQLVQSGAEVKKPGASVKVSCKASGYTFTSYGISWVRQAPGQGLEWMGWISAYNGNTNYAQKLQGRVTMTTDTSTSTAYMELRSLRSDDTAVYYCARDSSSWWVDAFDIWGQGTMVTVSS
VL: QSVLTQPPSVSAAPGQKVTISCSGSTSNIAINYVSWYQQVPGTVPKLLIYDDDKRPSGIPDRFSGSKSGTSATLDISGLQTGDEAHYYCGVWDNSLLAVLFGGGTSLTVL
notes: Human Fab from a phage library, hexahistidine-tagged, detected through a FLAG tag, made in E. coli HB2151
B2: DNV3.8 Fab (Fab, V domains shown)
VH: B1 VH
VL: SYELTQPPSVSEAPRQRATISCSGSRSNIGNNAVSWYQRLPGQAPKLLIYYDTFLPSGVSDRFSGSKSGTSASLTISGLQSDDEADYYCAAWDDSLNGVLFGGGTKLTVQ
notes: Light-chain-shuffled Fab variant of DNV3
B3: DNV3.14 Fab (Fab, V domains shown)
VH: B1 VH
VL: PYVLTQPPSVSGAPRQRVTISCSGGSSNIASNAVNWYQQFPGKAPKLLVYYDDLLPSGVSDRFSGSKTGTSASLAISALQSEDEADYFCAAWDDSLNGVLFGGGTKLTVL
notes: as for B2
B4: DNV3.4 Fab (Fab, V domains shown)
VH: B1 VH
VL: SYVLTQPPSTSAAPGQTVTILCFGGGSNLQSNTVNWYRHVSGSAPKLLIHSDDERASGVSPRLSGSKSGGSASLILRGLQPEDEGDYYCAAWDDRLDAYVFGTGTKVTVL
notes: as for B2
B5: DNV3.3 Fab (Fab, V domains shown)
VH: B1 VH
VL: QSVLTQPPSASGTPGQRVTISCSGSSSNIGNNAVNWYQQLPGKAPKLLIYYDDLLPSGVSDRFSGSKSGTSASLAISGLRSEDEGDYFCAAWDDSLSGQVLFGGGTKLTVL
notes: as for B2
B6: DNV3.1 Fab (Fab, V domains shown)
VH: B1 VH
VL: LPVLTQPPSASGTPGQRVTISCSGSSSNIGGNSVNWYQQLPGTAPKLLIYSDNQRPSGVPDRFSGSKSGTSASLAISGLQSEEEADYYCAAWDDSLNAYVFGPGTKVTVL
B7: DNV3.2 Fab (Fab, V domains shown)
VH: B1 VH
VL: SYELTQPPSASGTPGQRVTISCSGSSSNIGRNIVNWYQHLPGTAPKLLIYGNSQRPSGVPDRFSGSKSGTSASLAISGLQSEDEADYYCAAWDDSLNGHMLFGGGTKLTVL
notes: as for B2
B8: DNV3.7 Fab (Fab, V domains shown)
VH: B1 VH
VL: SYELTQPPSVSEAPRQRVTISCSGSSSNIGSNAVSWYQQVPRKAPKLLVYYDDLLPSGVSDRFSGSKSGTSASLAIRGLQSEDEADYYCAAWDDSLNAFVFGTGTKVTVL
notes: as for B2
B9: DNV3.16 Fab (Fab, V domains shown)
VH: B1 VH
VL: B3 VL with P1S, V10A, A13T, R15G
notes: as for B2
B10: DNV3.12 Fab (Fab, V domains shown)
VH: B1 VH
VL: SYVLTQPPSASGTPGQRVTISCSGSSSNIGSNIVNWYQHLPGTAPKLLIYGNSQRPSGVSDRFSGSKSGTSASLAISGLQSEDEANYYCAVWDDSLDGHLLFGGGTKLTVL
notes: as for B2
B11: DNV3.5 Fab (Fab, V domains shown)
VH: B1 VH
VL: B6 VL with L1Q, P2S, S26T, S33T, D52S, Q54R, K67T, E83D, N97I, P103T
notes: as for B2
B12: DNV3.9 Fab (Fab, V domains shown)
VH: B1 VH
VL: B3 VL with P1L, Y2P
notes: as for B2
B13: DNV1 Fab (Fab, V domains shown)
VH: QVQLQQWGAGLLKPSETLSLTCAVYGGSFSGYYWSWIRQPPGKGLEWIGEINHSGSTNYNPSLKSRVTISVDTSKNQFSLKLSSVTAADTAVYYCARITPRFDAFDIWGQGTMVTVSS
VL: QSVLTQPPSVSAAPGRKVTISCSGSSSNIGTNSVSWYQQFPGTAPKLLIYDNNKRLSRIPDRFSGSKSGTSASLAISGLQSEDEADYYCAAWDDSLTGYVFGTGTKVTVL
notes: as for B1

What follows are binders tested against T1, recombinant human LAG3 (Sino Biological …) (assay: ELISA, recombinant human LAG3 coated, Fab detected by anti-FLAG-HRP).
Description: The hexahistidine-tagged antibodies were expressed in E. coli strain HB2151 and purified from the soluble fraction of periplasm by using the Ni-NTA resin. 7 monoclonal antibodies against human LAG3 were selected by panning a large phage-display library of naïve human antibodies in the format of antigen-binding fragment (Fab). Then ELISA was performed according to standard protocols. Briefly, recombinant human LAG3 (Sino Biological Inc.) was coated on Corning EIA/RIA high-binding 96-well plates (Corning Inc.) at 50 ng per well overnight at 4° C. and blocked with 3% nonfat milk in PBS (pH7.4). Fivefold serially diluted antibodies were added and incubated at room temperature for 2 h. The plates were washed with PBS containing 0.05% Tween 20. Bound antibodies were detected by HRP-conjugated anti-FLAG tag antibody (Sigma-Aldrich). The assay was developed at room temperature with TMB substrate (Sigma-Aldrich) and monitored at 450 nm with a microplate reader.

Q: Which EC50 does the source give for B1 here?
A: 6 nM and ≤ 10 nM

Q: Does B2 bind?
A: binds

Q: Does B3 bind?
A: binds

Q: Does B4 bind?
A: binds

Q: Does B5 bind?
A: binds

Q: Does B6 bind?
A: binds

Q: Does B7 bind?
A: binds

Q: Does B8 bind?
A: binds

Q: Does B9 bind?
A: binds

Q: Does B10 bind?
A: binds

Q: Does B11 bind?
A: binds

Q: Does B12 bind?
A: binds

Q: With B13 as the binder, how does the EC50 read?
A: ≤ 10 nM
